{"source": "paper PMC3487758", "about": "“Fibrillin-1 Mutations Causing Weill-Marchesani Syndrome and Acromicric and Geleophysic Dysplasias Disrupt Heparan Sulfate Interactions” (PLoS ONE, 2012)", "proteins": {"B1": {"name": "Fibrillin-1 fragment PF17-1 WMS (Weill-Marchesani syndrome deletion mutant) (domain or fragment)", "chain": "not shown", "notes": "human fibrillin-1, fragment PF17-1 (exons 30-43, residues 1238-1807) with the 8 amino acid deletion in TB5 found in patients with WMS; Purifies as a monomer (86%) and a disulfide-linked dimer (14%); the deletion removes Cys 1695; also called WMS mutant"}}, "biological_target": "the molecule itself", "test": "SEC-MALS; MALLS on each separated gel filtration peak; Wyatt EOS 18-angle light scattering detector, Optilab r-EX refractometer"}
{"protein": "B1", "values": [{"measurement": "stoichiometry N", "value": 2}]}
